Positions count from the first letter of the chain named. Names may count otherwise.
T1: LRRC15 on the surface of LRRC15+ cells (SAOS-2, U87MG) (UniProt Q8TF66 22-581, limits assumed)
T1 sequence (looked up): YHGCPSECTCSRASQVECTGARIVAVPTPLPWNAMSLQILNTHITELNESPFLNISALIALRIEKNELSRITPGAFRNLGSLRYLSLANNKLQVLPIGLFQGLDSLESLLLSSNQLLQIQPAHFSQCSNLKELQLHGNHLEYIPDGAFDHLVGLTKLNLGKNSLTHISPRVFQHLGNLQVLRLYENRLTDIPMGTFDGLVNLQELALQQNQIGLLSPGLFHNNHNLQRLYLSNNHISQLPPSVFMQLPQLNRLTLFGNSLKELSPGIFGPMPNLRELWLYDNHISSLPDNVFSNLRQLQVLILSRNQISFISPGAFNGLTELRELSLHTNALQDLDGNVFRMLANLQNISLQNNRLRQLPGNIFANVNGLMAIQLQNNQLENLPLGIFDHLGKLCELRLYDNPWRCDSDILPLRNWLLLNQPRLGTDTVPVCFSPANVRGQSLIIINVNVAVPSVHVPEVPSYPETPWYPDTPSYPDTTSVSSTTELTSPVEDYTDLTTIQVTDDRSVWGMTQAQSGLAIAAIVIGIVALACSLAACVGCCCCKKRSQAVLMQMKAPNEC

T2: Human LRRC15 Protein, His Tag (Acro Biosystems) (human, UniProt Q8TF66 22-538, limits assumed)
T2 construct: Bought protein with His tag
T2 sequence (looked up): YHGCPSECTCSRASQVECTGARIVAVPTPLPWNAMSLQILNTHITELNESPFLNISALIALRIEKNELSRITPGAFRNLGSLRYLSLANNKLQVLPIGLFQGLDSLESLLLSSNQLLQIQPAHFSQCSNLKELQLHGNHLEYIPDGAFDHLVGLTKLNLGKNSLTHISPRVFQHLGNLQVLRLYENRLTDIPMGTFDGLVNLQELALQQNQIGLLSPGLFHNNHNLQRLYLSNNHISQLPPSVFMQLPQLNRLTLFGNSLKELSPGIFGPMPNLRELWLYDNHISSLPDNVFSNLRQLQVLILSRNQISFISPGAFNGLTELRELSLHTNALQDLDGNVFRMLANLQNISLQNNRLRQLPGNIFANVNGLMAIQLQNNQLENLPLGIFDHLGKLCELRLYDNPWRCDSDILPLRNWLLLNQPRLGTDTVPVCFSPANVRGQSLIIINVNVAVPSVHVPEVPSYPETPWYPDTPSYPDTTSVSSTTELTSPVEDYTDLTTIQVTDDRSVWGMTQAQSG

B1: MYT2737 (antibody, V domains shown)
VH: EVQLVQSGAEVKKPGASVKVSCKASGYKFSSYWIEWVKQAPGQGLEWIGEILPGSDTTNYNEKFKDRATFTSDTSINTAYMELSRLRSDDTAVYYCARDRGNYRAWFGYWGQGTLVTVSS
VL: DIQMTQSPSSLSASVGDRVTITCRASQDISNYLNWYQQKPGGAVKFLIYHTSRLHSGVPSRFSGSGSGTDYTLTISSLQPEDFATYFCQQGEALPWTFGGGTKVEIK
B2: MYT8483 (antibody, IgG1, V domains shown)
VH: EVQLVESGGGLVQPGGSLRLSCTASGFSFSGSYWICWVRQAPGKGLEWVGCINGGSLDITYYASWAKGRFTISRDTSKNTVYLQKTSLRAEDTAVYYCASDTSYTAYGNFYFNLWGQGTLVTVSS
VL: EIVMTQSPSPLSASVGDRVIITCQSSQSVLNNNWLAWYQQKPGKAPKLLIYDASSLASGVPSRFSGSGSGAEFTLTISSLQPDDFATYYCQGEFSCGSADCNAFGQGTKLTVL
B3: MYT9507 (antibody, V domains shown)
VH: EVQLVESGGGLVQPGGSLRLSCTASGFSFSSSHWICWVRQAPGKGLEWVGCIYAGSIGSTYYASWAKGRFTISRDTSKNTVYLQMNSLRAEDTAVYYCARAPNDIYNYYFNLWGQGTLVTVSS
VL: EIVMTQSPSTLSASVGDRVIITCDASENIYNYLAWYQQKPGKAPKLLIYYASTLASGVPSRFSGSGSGAEFTLTISSLQPDDFATYYCQSGYVSKSSTFGQGTKLTVL
B4: MYT9523 (antibody, V domains shown)
VH: B3 VH
VL: B3 VL with D24Q, A55D
B5: MYT8417 (antibody, V domains shown)
VH: EVQLVESGGGLVQPGGSLRLSCTASGLDFRRTNYICWVRQAPGKGLEWVGCIYIADVVHYYASWAKGRFTFSRDTSKNTVYLQMNSLRAEDTAVYYCARGADGGFVYGMDLWGQGTLVTVSS
VL: EIVMTQSPSTLSASVGDRVIITCQASQSIGNYLSWYQQKPGKAPKRLIYSASTLPSGVPSRFSGSGSGAEFTLTISSLQPDDFATYYCQNNYWLAHYGHPFGQGTKLTVL
B6: MYT8407 (antibody, V domains shown)
VH: B5 VH with Y34H, F105H, V106H
VL: B5 VL with H96G
notes: hu15G7 VH Y34H, F105H, V106H; human Fc
B7: MYT8398 (antibody, V domains shown)
VH: B5 VH with Y53H, V106H
VL: B5 VL with H96G
notes: hu15G7 VH Y53H, V106H; human Fc
B8: MYT8402 (antibody, V domains shown)
VH: B5 VH with Y34H, Y53H, G104H
VL: B5 VL with H96G
notes: hu15G7 VH Y34H, Y53H, G104H; human Fc
B9: MYT8408 (antibody, V domains shown)
VH: B5 VH with Y53H, G104H, F105H
VL: B5 VL with H96G
notes: hu15G7 VH Y53H, G104H, F105H; human Fc
B10: MYT8401 (antibody, V domains shown)
VH: B5 VH with F105H, V106H
VL: B5 VL with H96G
notes: hu15G7 VH F105H, V106H; human Fc
B11: MYT8406 (antibody, V domains shown)
VH: B5 VH with Y34H, G104H, V106H
VL: B5 VL with H96G
notes: hu15G7 VH Y34H, G104H, V106H; human Fc
B12: MYT8399 (antibody, V domains shown)
VH: B5 VH with G104H, F105H
VL: B5 VL with H96G
notes: hu15G7 VH G104H, F105H; human Fc
B13: MYT8405 (antibody, V domains shown)
VH: B5 VH with Y34H, G104H, F105H
VL: B5 VL with H96G
notes: hu15G7 VH Y34H, G104H, F105H; human Fc
B14: MYT8411 (antibody, V domains shown)
VH: B5 VH with G104H, F105H, V106H
VL: B5 VL with H96G
notes: hu15G7 VH G104H, F105H, V106H; human Fc
B15: MYT8410 (antibody, V domains shown)
VH: B5 VH with Y53H, F105H, V106H
VL: B5 VL with H96G
notes: hu15G7 VH Y53H, F105H, V106H; human Fc
B16: MYT8403 (antibody, V domains shown)
VH: B5 VH with Y34H, Y53H, F105H
VL: B5 VL with H96G
notes: hu15G7 VH Y34H, Y53H, F105H; human Fc
B17: MYT8400 (antibody, V domains shown)
VH: B5 VH with G104H, V106H
VL: B5 VL with H96G
notes: hu15G7 VH G104H, V106H; human Fc
B18: MYT8409 (antibody, V domains shown)
VH: B5 VH with Y53H, G104H, V106H
VL: B5 VL with H96G
notes: hu15G7 VH Y53H, G104H, V106H; human Fc
B19: MYT8397 (antibody, V domains shown)
VH: B5 VH with Y53H, F105H
VL: B5 VL with H96G
notes: hu15G7 VH Y53H, F105H; human Fc
B20: MYT8413 (antibody, V domains shown)
VH: B5 VH
VL: B5 VL with G30H, H96G
notes: hu15G7 VL G30H; human Fc

Each binder was assayed against T1, LRRC15 on the surface of LRRC15+ cells … (assay: cell-based or functional assay).

Internalization in U87MG cells (10 nM, 24 hours), FOB = fold over background (IgG control) | Internalization in U87MG cells (10 nM, 24 hours), FOS = fold over samrotamab | Binder
2.07 fold over background (IgG control) | 1.24 fold over samrotamab | B1
2.25 fold over background (IgG control) | 1.45 fold over samrotamab | B2
3.58 fold over background (IgG control) | 3.01 fold over samrotamab | B3
3.05 fold over background (IgG control) | 2.4 fold over samrotamab | B4
2.76 fold over background (IgG control) | 2.06 fold over samrotamab | B5

Biological target: T1, LRRC15 on the surface of LRRC15+ cells …
Assay: cell-based or functional assay
Remark: another data set of the same source

Internalization in SAOS-2 cells (10 nM, 24 hours), FOB = fold over background (IgG control) | Internalization in SAOS-2 cells (10 nM, 24 hours), FOS = fold over samrotamab | Binder
2.01 fold over background (IgG control) | 0.62 fold over samrotamab | B1
2.62 fold over background (IgG control) | 1 fold over samrotamab | B2
3.16 fold over background (IgG control) | 1.33 fold over samrotamab | B3
3.23 fold over background (IgG control) | 1.37 fold over samrotamab | B4
2.68 fold over background (IgG control) | 1.04 fold over samrotamab | B5

The binders below were run against T2, Human LRRC15 Protein, His Tag (Acro …) (assay: BLI; dissociation pH 7.4 black, pH 5.4 grey [D00009 FIG. 1G]).

binding result | Binder
no binding (tested: 50 nM LRRC15) | B6
no binding (tested: 50 nM LRRC15) | B7
no binding (tested: 50 nM LRRC15) | B8
no binding (tested: 50 nM LRRC15) | B9
binds | B10
no binding (tested: 50 nM LRRC15) | B11
binds | B12
binds | B13
binds | B14
no binding (tested: 50 nM LRRC15) | B15
no binding (tested: 50 nM LRRC15) | B16
binds | B17
no binding (tested: 50 nM LRRC15) | B18
no binding (tested: 50 nM LRRC15) | B19

What follows are binders tested against T2, Human LRRC15 Protein, His Tag (Acro …) (assay: BLI; dissociation pH 7.4 black, pH 5.4 grey [D00010 FIG. 1H]).
Description: For each individual plot, antigen binding proteins were captured on anti-human Fc biosensors and associated with LRRC15 at pH 7.4. Dissociation was at pH 7.4 (black) or pH 5.4 (grey). Major X-axis ticks=100 seconds, with left dashed vertical line=0 seconds. Major Y-axis ticks=0.5 nm and octet plots are shown MYT5712 and MYT6080-MYT6121.
Multiple LRRC15-binding monoclonal antibodies have been described in the literature and can be used as a template for engineering pH-dependent binding. We selected discovery RabMAb clone 15G7 (rabbit VH SEQ ID NO: 378, rabbit VL SEQ ID NO: 451; humanized VH SEQ ID NO: 382, humanized VL SEQ ID NO: 455) as a LRRC15-binding monoclonal antibody for pH-engineering via histidine scanning. […] To generate pH-dependent sequence variants, individual amino acid residues within the heavy chain CDRs were systematically substituted with a histidine (or alanine if H was already present in a given position; e.g., MYT6099), one at a time (rabbit, MYT6080-6121). Desirable mutations were transferred to a humanized framework (humanized, MYT 8387-8411). After allowing for four days of protein expression, cell culture supernatants were collected, quantified by SDS-PAGE analysis, and the pH dependence of the variant was evaluated using biolayer interferometry (BLI) on an Octet RED 96e instrument. Briefly, cell culture supernatants were diluted based on qualitative expression level of the variant determined by visual examination of SDS-PAGE gels, 5 μL of cell culture supernatant was diluted into 195 μL of 1×PBST, pH 7.4 for high expressors, 25 μL of cell culture supernatant was diluted into 175 μL of 1×PBST, pH 7.4 for medium expressors and 100 μL of cell culture supernatant was diluted into 100 μL of 1×PBST, pH 7.4 for low expressors for loading onto the sensor tips.

binding result | Binder
binds | B20
